Results published in PMC2965851 (Chemistry & biology, 2008).

Target: the molecule itself
Assay: crystal structure

B1: N-(His)10-tagged CalG3 (native) (enzyme, Micromonospora echinospora, UniProt Q8KND7 1-376, looked up)
chain: MLFVSSPGIGHLFPLIQLAWGFRTAGHDVLIAVAEHADRAAAAGLEVVDVAPDYSAVKVFEQVAKDNPRFAETVATRPAIDLEEWGVQIAAVNRPLVDGTMALVDDYRPDLVVYEQGATVGLLAADRAGVPAVQRNQSAWRTRGMHRSIASFLTDLMDKHQVSLPEPVATIESFPPSLLLEAEPEGWFMRWVPYGGGAVLGDRLPPVPARPEVAITMGTIELQAFGIGAVEPIIAAAGEVDADFVLALGDLDISPLGTLPRNVRAVGWTPLHTLLRTCTAVVHHGGGGTVMTAIDAGIPQLLAPDPRDQFQHTAREAVSRRGIGLVSTSDKVDADLLRRLIGDESLRTAAREVREEMVALPTPAETVRRIVERISG
stoichiometry N: 2
